Molecular target: T1, S-TNF, human TNFα fusion protein with an N-terminal S-Tag (human, UniProt P01375 77-233)
T1 construct: Made, expressed and purified by the applicants; not shown: 15 amino acid S-Tag peptide (Novagen)
Assay: indirect ELISA: sp55 from conditioned medium captured on Ni-NTA wells, S-TNF at 1 μg/mL, S-protein-HRP detection, absorbance at 370 nm

T1 sequence (P01375 77-233): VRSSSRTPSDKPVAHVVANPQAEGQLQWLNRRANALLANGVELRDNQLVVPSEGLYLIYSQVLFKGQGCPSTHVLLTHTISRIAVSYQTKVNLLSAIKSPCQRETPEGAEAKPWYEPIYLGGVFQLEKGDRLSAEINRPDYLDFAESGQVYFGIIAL

B1: sp55, soluble TNF receptor p55: ecto-domain of human TNFR-1 (residues 30-211) with C-terminal myc and His6 tags (receptor)
chain: DAAQPARRAVRSLVPHLGDREKRDSVCPQGKYIHPQNNSICCTKCHKGTYLYNDCPGPGQDTDCRECESGSFTASENHLRHCLSCSKCRKEMGQVEISSCTVDRDTVCGCRKNQYRHYWSENLFQCFNCSLCLNGTVHLSCQEKQNTVCTCHAGFFLRENECVSCSNCKKSLECTKLCLPQIENVKGTEDSGTTRGGPEQKLISEEDLNSAVDHHHHHH
notes: Used as conditioned medium of transfected 293T cells; also called p55FL-myc-his; p55L
  fold elevation in S-TNF binding over non-specific binding in control samples: 3 fold
